Tests used:
human macrophages = assay: Signaling pathway Alpha-LISA (pSYK, pERK1/2, pGSK3-beta, pAKT) in human macrophages; assay type: cell-based; conditions: 15 minutes
Description: Anti-TREM2 antibodies were characterized for activation of several signaling pathways, SYK, ERK1/2, AKT and GSK3-beta. Human macrophages differentiated from peripheral monocytes were plated in 96-well plates at a density of 100,000 cell/well. The assay was tested in three conditions (0%, 0.5%, and 10% FBS in the media) for 3 hours. Cells were stimulated with the antibody RS9.F6, 24B4.A1, 8A11.B1, 3D3.A1, 54C2.A1, isotype control IgG2ak, rat anti-TREM2 from R&D, isotype control rat IgG2b, or no treatment (NT) for 15 minutes. The cell lysates were measured for p-Y525/526-SYK, p-T202/Y204-ERK1/2, p-S9-GSK3-beta, and p-S473-AKT using Alpha-LISA kits (Perkin Elmer). […] The antibodies stimulated p-GSK signal moderately (FIG. 6C).

TREM2 [1] = biological target: T1, TREM2 (Homo sapiens, UniProt Q9NZC2); assay: PAM and single point pSyk screen, HEK293 TREM2/DAP12 cells, antibody with or without PS/PC liposomes; assay type: cell-based
T1 construct: expressed in transfected cells
T1 sequence (Q9NZC2 19-230): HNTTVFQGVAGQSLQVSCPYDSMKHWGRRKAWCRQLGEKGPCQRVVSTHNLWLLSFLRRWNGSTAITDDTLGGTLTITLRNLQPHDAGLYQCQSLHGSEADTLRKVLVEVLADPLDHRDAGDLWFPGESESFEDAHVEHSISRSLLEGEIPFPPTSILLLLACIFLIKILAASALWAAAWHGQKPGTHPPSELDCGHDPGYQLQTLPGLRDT
T1 sequence (O43914 22-113 partner): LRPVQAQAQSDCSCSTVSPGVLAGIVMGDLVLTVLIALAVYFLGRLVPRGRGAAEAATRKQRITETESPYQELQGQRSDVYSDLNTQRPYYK
Description: Two days in advance of the experiment, HEK293 cells stably overexpressing TREM2 and DAP12 were plated at 40,000 cells/well on a 96 well poly-D-lysine-coated plate. In PAM experiments utilizing lipid vesicles, the lipid vesicles (see protocol below) were then mixed with the antibodies (at a constant concentration) on a 96-well plate using a Hamilton Nimbus liquid handler at a liposome concentration of 0, liposome EC20, EC50, or EC80 (see below) in PBS. In agonist experiments alone (no liposomes), antibodies were diluted without liposomes in PBS. The cells were washed 3× with HBSS with a Biotek 405/406 plate washer, then 50 μL of the liposome/antibody mixture was added per well using a Hamilton Nimbus liquid handler. The cell plate containing the liposome/antibodies was then transferred to a 37° C. incubator for 5 minutes. The liposome/antibody solution was removed by flicking the plate, and 40 μL lysis buffer (Cell Signaling Technologies, CST) was added using the liquid handler. […]
The liposomes were diluted in HBSS, and 50 μL of liposome solution was added per well to TREM2/DAP12-overexpressing cells using the Hamilton Nimbus liquid handler as in the above protocol. […] The pSyk response was measured as described above from 10 μL lysate, and the curve fit using a non-linear regression (4 parameter dose response) fit in Prism.

TREM2 [2] = biological target: T1, TREM2; assay: FACS binning on human TREM2-HEK cells (competition with R&D antibody); assay type: binding; conditions: epitope bin, 100 nM antibody
Description: HEK293 overexpressing human TREM2 (H6) were harvested by 0.05% trypsin and incubated at 37° C. incubator for 2 hours for surface TREM2 recovery. After incubation, cells were washed with 1×PBS and FACS buffer (PBS+0.5% BSA) with human Trustain FcX solution (Biolegend, Cat #422302) was added at a density of 10^6/mL. Cells were seeded at 100,000 cells per well in a 96-well round-bottom and incubated 20 minutes at room temperature. After incubation, anti-TREM2 antibodies (100 nM) were added to the cells and the cells were incubated for 45 minutes on ice. After incubation, rat anti-h/mTREM2-APC antibody (1:100, R&D, Cat # FAB17291A) was added to the cells, and the cells were incubated for 30 minutes on ice. After incubation, cells were washed with FACS buffer three times and resuspended in 10 μL FACS buffer, then analyzed by flow cytometry (BD FACSCanto II, San Jose, Calif.). 20,000 events were obtained for each sample. The ability to compete with R&D antibody was determined by MFI analysis compared to isotype or buffer control wells.

TREM2 [3] = biological target: T1, TREM2; assay: pSyk antagonist assay on HEK293 TREM2/DAP12 cells; assay type: cell-based; conditions: FIGS. 9E-9G
Description: These experiments were performed as follows. Two days in advance of the experiment, HEK293 cells stably overexpressing TREM2 and DAP12 were plated at 40,000 cells/well on a 96 well poly-D-lysine-coated plate. Antibodies diluted in DMEM alone were immediately added to the cells, and allowed to incubate for 30 minutes at 37° C. The antibodies were then removed. […] The liposome/antibody solution was removed, and 35 μL lysis buffer (Cell Signaling Technologies, CST) was added using the liquid handler. The lysate was then incubated at 4° C. for 30 minutes, then either frozen at −80° C. or immediately carried forward to a pSyk AlphaLISA assay as described above. The percent inhibition was calculated as in FIG. 9C.
FIGS. 9F and 9G show inhibition by 21D4 and 21D11, respectively, at increasing antibody concentrations. These experiments were performed similarly to those described in FIG. 9E.

| p-Syk induction by antibody alone (in words) (TREM2 [1]; no liposomes, HEK293 TREM2/DAP12) | Bin by FACS (TREM2 [2]) | inhibition of liposome mediated pSyk (TREM2 [3]) | interaction with lipid ligand to activate p-Syk (in words) (TREM2 [1]; FIG. 9A, 30 nM antibody, PS/PC liposomes, HEK cells) | Molecule | p-SYK signal (human macrophages) | pERK1/2 signal (human macrophages) |
| --- | --- | --- | --- | --- | --- | --- |
|  |  |  |  | RS9.F6: anti-TREM2 antibody clone; VH SEQ ID NO:24, VL SEQ ID NO:35 (antibody, V domains shown) VH: QVQLQQPGAELVKPGASVKLSCKASGYTFTSYWMHWVKQSPGRGLEWIGRSDPTTGGTNYNEKFKTKATLTVDKPSSTAYMQLSSLTSDDSAVYYCVRTSGTGDYWGQGTSLTVSS VL: DVVMTQTPLSLPVSLGDQASISCRSSQSLVHNNGNTFLHWYLQKPGQSPKLLIYKVSNRFSGVPDRFSGSGSGTDFTLKISRVEAEDLGVYFCSQTTHVPPTFGGGTKLEIK | robust | robust |
| do not induce p-Syk | 1-2 | weaker antagonistic activity |  | 21D11: anti-TREM2 antibody clone; VH SEQ ID NO:14, VL SEQ ID NO:25 (antibody, V domains shown) VH: QVQLQQSGAELARPGASVKLSCKASGYTFTSYWIQWVKQRPGQGLEWIGTIYPGDGDARYTQKFKGKATLTADKSSSTTYMQLNSLASEDSAVYYCARNGITTAGYYAMDYWGQGTSVTVSS VL: DIQMTQSPASLSVSVGETVTITCRASENIYSNLAWYQQKQGRSPQLLVYAATNLADGVPSRFSGSGSGTQYSLKINSLQSEDFGYYYCQHFWGTPYTFGGGTKVEIK |  |  |
|  | 3 |  | additive with lipid TREM2 activators | 3D3.A1: anti-TREM2 antibody clone; VH SEQ ID NO:18, VL SEQ ID NO:29 (antibody, V domains shown) VH: EVQLQQSGPELVKPGASVKISCKTSGYTLSEYTMHWVIQSHGKSLEWIGGVIPNSGGTSYNQKFRDKASLTVDKSSSTAYLELRSLTSEDSAVYYCARGDDSYRRGYALDYWGQGTSVTVSS VL: DIVMSQSPSSLAVSVGEKVTMSCKSSQSLLYSSNQKSYLAWYQQKPGQSPKLLIYWASTRESGVPDRFRGSGSGTDFTLTISSVKAEDLAVYYCQQYFSYPPTFGGGTKLEIK | robust | robust |
